Seven molecules from article PMC13043726, “SFPQ directs histone H3.3 deposition to R-loops in DNA repeats to protect genome stability” can be followed below.

The target in data set [1] is HA-tagged DAXX, full length (UniProt Q9UER7). Kind of data set: co-immunoprecipitation (IP anti-HA, blot anti-Myc). Particulars: U-2 OS cells; parent: 1.
Another data set concerns the target T1, SFPQ full-length (Homo sapiens, UniProt P23246 1-707).
T1 sequence: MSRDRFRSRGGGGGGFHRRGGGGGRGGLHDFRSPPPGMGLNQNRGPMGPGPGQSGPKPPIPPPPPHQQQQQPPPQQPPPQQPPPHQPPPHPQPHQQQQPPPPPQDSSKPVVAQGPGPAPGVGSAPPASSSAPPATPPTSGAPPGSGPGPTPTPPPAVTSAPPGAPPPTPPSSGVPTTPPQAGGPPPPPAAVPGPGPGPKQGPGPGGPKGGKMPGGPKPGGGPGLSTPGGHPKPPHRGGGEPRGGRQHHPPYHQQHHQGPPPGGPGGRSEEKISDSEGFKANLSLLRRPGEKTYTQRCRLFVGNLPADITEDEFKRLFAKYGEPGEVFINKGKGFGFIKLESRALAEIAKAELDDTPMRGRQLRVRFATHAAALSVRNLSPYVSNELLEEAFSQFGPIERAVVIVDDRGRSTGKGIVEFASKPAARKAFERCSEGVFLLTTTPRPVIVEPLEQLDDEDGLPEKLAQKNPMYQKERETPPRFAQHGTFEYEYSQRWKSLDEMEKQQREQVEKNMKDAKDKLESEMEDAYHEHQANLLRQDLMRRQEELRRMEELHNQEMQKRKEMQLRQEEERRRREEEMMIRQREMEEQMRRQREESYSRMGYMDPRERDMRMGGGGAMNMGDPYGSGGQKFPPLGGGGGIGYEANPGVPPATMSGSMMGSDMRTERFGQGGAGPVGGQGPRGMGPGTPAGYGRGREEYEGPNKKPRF
As to the kind of experiment: EMSA; EMSA: 10 nM probe, 0-1600 nM SFPQ, 20 mM Tris-HCl pH 7.5, 100 mM KCl, 0.5 mM MgCl2, 0.5 mM EDTA, 0.2 mM DTT, 1% glycerol, room temperature, 30 min (RNaseOUT with RNA); 5% native PAGE, 1xTBE. To be noted: protein: recombinant, tags: N-terminal His6-myc (vector pNIC-CTHF), chain copies: 2.

Where [2] appears, read: label: 5'-6-FAM on strand 1, blunt.

HA-tagged DAXX, full length, sequence (Q9UER7 whole entry): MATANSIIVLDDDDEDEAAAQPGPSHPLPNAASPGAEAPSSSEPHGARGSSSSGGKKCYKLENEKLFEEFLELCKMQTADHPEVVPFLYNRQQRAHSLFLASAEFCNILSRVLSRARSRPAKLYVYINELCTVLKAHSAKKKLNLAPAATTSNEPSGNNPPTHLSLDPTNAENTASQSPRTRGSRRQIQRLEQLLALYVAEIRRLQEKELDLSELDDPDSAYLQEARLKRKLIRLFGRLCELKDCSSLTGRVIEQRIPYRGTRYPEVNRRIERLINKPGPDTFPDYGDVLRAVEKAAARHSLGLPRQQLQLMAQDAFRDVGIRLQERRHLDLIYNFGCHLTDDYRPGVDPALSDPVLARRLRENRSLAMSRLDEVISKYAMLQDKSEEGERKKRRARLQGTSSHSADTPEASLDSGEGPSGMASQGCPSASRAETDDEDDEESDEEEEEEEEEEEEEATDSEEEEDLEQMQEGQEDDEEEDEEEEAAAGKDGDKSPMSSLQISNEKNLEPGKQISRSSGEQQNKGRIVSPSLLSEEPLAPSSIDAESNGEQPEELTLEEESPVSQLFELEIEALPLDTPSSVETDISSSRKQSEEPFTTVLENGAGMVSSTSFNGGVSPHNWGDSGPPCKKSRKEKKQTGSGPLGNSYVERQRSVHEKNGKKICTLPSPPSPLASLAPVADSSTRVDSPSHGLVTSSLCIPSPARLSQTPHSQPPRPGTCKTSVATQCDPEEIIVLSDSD

“SFPQ proline-rich P-domain fused to GFP and a nuclear localization signal, myc-tagged (from UniProt P23246) T150delinsKP”: the ratio to parent in data set [1] was 0.2.

As to GGAAUGGAAUGGAAUGGAAUGGA (ssRNA) [ssRNA Pericentric1 (SatIII [GGAAU]4)], in the data set with SFPQ full-length (label: 5'-6-FAM, single strand), the binding result is “binds”.

B1: 23-nt dsDNA (D1_B:D3_B) (dsDNA)
DNA 1: CTACTACCCCCACCCTCACAACC
DNA 2: GGTTGTGAGGGTGGGGGTAGTAG
Take B1: the binding result with SFPQ full-length (setting [2]) is “no binding”.

B2: 23-nt DNA:RNA hybrid (D1_B:R2_B) (DNA:RNA)
DNA: CTACTACCCCCACCCTCACAACC
RNA: GGUUGUGAGGGUGGGGGUAGUAG
For B2, the binding result in the data set with SFPQ full-length (label: 5'-6-FAM on DNA strand, blunt) is listed as “no binding”. With GAAAGAAAGAAAGAAAGAAAGAA (ssRNA) [ssRNA Pericentric2 ([GAAA]5)], the binding result with SFPQ full-length (label: 5'-6-FAM, single strand) is given as “binds”.

B3: 23-nt blunt dsRNA (R1_B:R2_B) (dsRNA)
RNA 1: CUACUACCCCCACCCUCACAACC
RNA 2: GGUUGUGAGGGUGGGGGUAGUAG
On to B3, for which the binding result with SFPQ full-length (setting [2]) is recorded as “no binding”. Regarding UUAGGGUUAGGGUUAGGGUUAGGG (ssRNA) [ssRNA TERRA [UUAGGG]4], in the data set with SFPQ full-length (label: 5'-6-FAM, single strand), the binding result is “binds”.
